According to paper PMC4914107 (Nucleic Acids Research, 2016):

Legend:
[1] = biological target: 2XMBP-BRC1-8-DBD (Homo sapiens, UniProt P51587 993-3418); assay: EMSA
[2] = biological target: 2XMBP-BRC5-8-DBD (Homo sapiens, UniProt P51587 1596-3418); assay: EMSA
[3] = biological target: T1, 2XMBP-BRC4-DBD (Homo sapiens, UniProt P51587;P51587 1496-1589;2153-3418); assay: EMSA
T1 chain 1: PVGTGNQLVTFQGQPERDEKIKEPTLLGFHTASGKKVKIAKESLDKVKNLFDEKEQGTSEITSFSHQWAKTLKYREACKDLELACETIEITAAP
T1 chain 2: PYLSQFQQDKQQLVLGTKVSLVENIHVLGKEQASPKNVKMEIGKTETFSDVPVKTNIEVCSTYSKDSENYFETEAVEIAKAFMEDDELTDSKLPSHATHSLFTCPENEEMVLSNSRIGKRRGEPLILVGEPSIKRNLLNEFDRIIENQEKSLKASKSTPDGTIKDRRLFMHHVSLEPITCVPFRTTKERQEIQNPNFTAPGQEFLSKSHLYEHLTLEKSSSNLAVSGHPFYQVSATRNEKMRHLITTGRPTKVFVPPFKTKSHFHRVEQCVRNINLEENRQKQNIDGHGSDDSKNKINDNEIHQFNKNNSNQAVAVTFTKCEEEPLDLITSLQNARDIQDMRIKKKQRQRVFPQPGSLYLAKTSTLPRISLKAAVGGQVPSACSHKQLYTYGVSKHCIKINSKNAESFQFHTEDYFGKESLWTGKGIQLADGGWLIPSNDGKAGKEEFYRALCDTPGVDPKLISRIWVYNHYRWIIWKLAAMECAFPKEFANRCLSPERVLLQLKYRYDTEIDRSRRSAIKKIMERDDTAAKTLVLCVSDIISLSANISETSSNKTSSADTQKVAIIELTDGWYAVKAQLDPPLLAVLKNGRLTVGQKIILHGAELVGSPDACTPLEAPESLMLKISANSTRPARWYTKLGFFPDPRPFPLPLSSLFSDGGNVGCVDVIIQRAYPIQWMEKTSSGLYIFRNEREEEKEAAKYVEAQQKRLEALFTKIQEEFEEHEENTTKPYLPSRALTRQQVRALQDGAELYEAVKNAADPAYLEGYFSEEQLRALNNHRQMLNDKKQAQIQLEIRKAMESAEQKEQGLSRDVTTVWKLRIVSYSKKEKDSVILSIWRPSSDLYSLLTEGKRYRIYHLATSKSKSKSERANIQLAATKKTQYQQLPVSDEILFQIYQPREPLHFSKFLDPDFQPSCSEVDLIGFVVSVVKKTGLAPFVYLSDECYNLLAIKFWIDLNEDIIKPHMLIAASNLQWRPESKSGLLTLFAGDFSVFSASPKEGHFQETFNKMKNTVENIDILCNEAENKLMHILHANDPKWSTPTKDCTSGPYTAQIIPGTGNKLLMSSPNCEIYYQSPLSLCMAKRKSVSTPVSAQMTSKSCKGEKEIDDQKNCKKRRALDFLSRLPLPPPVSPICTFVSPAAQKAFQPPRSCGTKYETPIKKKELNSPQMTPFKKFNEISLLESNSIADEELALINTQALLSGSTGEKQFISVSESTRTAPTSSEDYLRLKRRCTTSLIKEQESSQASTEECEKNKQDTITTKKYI

[4] = biological target: T2, 2XMBP-BRCA2 DBD (Homo sapiens, UniProt P51587 2153-3418); assay: EMSA
T2 sequence: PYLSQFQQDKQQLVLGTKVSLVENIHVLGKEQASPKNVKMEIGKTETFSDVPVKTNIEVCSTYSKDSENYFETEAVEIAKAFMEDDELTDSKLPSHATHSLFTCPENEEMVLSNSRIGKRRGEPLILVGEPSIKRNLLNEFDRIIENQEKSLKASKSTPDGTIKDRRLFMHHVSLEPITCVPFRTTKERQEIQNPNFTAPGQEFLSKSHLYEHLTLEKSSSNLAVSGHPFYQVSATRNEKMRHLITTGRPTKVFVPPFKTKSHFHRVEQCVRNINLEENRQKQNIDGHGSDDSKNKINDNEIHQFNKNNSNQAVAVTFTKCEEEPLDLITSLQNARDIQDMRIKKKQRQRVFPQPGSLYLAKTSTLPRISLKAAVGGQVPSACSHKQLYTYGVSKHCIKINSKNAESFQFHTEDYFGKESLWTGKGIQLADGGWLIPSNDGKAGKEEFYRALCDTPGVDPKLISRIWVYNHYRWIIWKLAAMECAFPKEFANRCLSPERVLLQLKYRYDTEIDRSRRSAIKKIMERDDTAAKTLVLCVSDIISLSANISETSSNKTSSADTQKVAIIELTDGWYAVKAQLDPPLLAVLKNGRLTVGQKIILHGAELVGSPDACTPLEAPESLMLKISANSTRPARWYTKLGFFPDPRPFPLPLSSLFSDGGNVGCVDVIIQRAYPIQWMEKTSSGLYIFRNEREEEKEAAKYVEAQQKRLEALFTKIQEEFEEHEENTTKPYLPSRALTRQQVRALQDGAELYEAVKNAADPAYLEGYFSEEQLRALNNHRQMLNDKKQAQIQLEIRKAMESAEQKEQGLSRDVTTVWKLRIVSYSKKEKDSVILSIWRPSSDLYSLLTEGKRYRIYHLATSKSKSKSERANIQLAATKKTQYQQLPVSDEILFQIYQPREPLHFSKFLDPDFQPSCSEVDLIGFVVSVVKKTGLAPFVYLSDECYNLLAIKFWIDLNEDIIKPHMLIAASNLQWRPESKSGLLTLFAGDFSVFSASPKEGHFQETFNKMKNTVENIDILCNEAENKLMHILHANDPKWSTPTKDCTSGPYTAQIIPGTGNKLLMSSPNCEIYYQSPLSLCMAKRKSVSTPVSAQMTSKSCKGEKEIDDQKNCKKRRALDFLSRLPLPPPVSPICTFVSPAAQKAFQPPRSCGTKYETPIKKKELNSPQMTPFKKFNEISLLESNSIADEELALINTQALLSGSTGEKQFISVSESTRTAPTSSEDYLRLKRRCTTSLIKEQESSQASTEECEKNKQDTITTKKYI

[5] = biological target: T3, 2XMBP-BRC1-4-DBD (Homo sapiens, UniProt P51587;P51587 993-1589;2153-3418); assay: EMSA
T3 chain 1: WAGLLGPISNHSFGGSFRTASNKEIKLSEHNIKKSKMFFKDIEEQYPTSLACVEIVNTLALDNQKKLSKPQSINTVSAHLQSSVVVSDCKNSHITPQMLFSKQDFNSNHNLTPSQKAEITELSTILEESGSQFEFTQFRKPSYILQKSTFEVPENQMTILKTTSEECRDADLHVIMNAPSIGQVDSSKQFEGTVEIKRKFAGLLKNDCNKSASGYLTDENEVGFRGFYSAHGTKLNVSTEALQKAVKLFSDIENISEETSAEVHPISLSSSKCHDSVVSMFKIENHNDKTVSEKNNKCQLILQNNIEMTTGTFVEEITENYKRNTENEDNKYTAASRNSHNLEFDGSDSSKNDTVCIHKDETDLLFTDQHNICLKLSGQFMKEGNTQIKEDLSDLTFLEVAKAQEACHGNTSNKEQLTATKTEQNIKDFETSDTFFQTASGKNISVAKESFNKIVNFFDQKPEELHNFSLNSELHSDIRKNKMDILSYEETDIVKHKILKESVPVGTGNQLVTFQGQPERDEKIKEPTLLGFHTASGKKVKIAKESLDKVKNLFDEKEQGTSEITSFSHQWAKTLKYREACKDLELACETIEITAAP
T3 chain 2: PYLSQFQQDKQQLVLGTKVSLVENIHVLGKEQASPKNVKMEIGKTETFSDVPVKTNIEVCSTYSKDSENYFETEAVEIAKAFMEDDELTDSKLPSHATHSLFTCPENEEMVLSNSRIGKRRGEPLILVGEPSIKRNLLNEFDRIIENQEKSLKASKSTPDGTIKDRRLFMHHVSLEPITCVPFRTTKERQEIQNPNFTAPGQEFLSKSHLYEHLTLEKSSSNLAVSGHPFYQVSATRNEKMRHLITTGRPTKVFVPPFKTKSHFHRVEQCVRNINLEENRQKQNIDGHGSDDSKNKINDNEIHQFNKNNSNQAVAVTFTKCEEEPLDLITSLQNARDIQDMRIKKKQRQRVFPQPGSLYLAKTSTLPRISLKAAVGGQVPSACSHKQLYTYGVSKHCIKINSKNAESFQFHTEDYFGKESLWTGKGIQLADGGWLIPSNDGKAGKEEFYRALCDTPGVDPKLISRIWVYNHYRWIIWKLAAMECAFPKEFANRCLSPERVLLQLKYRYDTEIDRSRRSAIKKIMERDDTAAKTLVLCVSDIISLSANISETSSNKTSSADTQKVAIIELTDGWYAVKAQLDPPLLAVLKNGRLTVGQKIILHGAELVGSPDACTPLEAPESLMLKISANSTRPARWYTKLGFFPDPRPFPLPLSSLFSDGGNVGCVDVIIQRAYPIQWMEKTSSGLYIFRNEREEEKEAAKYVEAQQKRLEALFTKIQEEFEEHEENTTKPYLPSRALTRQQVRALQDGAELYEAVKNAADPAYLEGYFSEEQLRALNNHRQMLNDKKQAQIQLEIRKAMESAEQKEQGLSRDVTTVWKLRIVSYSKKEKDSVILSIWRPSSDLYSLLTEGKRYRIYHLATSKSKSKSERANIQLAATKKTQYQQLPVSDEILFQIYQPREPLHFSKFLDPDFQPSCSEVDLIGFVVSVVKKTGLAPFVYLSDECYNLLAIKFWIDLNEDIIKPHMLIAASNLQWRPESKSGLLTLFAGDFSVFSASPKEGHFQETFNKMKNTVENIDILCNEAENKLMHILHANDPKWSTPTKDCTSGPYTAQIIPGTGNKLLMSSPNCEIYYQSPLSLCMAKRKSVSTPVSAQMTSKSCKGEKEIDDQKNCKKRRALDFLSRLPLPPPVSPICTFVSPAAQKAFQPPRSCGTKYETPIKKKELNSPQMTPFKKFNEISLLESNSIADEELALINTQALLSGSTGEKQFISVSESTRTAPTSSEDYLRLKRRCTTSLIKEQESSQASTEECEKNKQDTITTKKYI

[6] = biological target: T2, 2XMBP-BRCA2 DBD; assay: pull-down
[7] = biological target: RAD51;2XMBP-BRC1-4-DBD (Homo sapiens;Homo sapiens, UniProt Q06609;P51587;P51587 1-339;993-1589;2153-3418, |); assay: pull-down
Sequence of RAD51;2XMBP-BRC1-4-DBD (Q06609 whole entry, one chain of several): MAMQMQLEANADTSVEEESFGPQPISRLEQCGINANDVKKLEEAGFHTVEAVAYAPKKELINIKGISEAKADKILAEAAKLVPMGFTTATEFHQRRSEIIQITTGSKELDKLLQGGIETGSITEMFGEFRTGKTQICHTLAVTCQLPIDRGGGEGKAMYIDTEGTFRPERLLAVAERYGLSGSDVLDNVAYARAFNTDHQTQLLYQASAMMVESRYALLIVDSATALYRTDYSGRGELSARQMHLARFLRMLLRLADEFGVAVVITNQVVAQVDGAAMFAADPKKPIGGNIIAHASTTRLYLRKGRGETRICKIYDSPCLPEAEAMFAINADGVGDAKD

[8] = biological target: RAD51;2XMBP-BRC1-8-DBD (Homo sapiens;Homo sapiens, UniProt Q06609;P51587 1-339;993-3418, |); assay: pull-down
Sequence of RAD51;2XMBP-BRC1-8-DBD (Q06609 whole entry, one chain of several): as above

[9] = biological target: RAD51;2XMBP-BRC5-8-DBD (Homo sapiens;Homo sapiens, UniProt Q06609;P51587 1-339;1596-3418, |); assay: pull-down
Sequence of RAD51;2XMBP-BRC5-8-DBD (Q06609 whole entry, one chain of several): as above

Measured: binding result

B1: 3' tail DNA (RJ-167-mer / RJ-PHIX-42-1) (mixed)
DNA 1: CTGCTTTATCAAGATAATTTTTCGACTCATCAGAAATATCCGTTTCCTATATTTATTCCTATTATGTTTTATTCATTTACTTATTCTTTATGTTCATTTTTTATATCCTTTACTTTATTTTCTCTGTTTATTCATTTACTTATTTTGTATTATCCTTATCTTATTTA
DNA 2: CGGATATTTCTGATGAGTCGAAAAATTATCTTGATAAAGCAG
binds: [1] | [2] | [3] | [4] | [5]

B2: biotinylated ssDNA RJ-167-mer (ssDNA)
DNA: CTGCTTTATCAAGATAATTTTTCGACTCATCAGAAATATCCGTTTCCTATATTTATTCCTATTATGTTTTATTCATTTACTTATTCTTTATGTTCATTTTTTATATCCTTTACTTTATTTTCTCTGTTTATTCATTTACTTATTTTGTATTATCCTTATCTTATTTA
binds: [6] | [7] | [8] | [9]
